We go through one molecule from PMC13408441, “Molecular regulation and physiological role of GOLPH3-mediated Golgi retention” (Nature Communications, 2026).

In series [1] the target is T1, GOLPH3-4G (Homo sapiens, UniProt Q9H4A6, F194G/F197G/L195G/L196G).
T1 construct: 10xHistidine tag (N, cleaved yes); Twin-Strep-tag (N, cleaved yes); made in house; host or cells: E. coli BL21(DE3)
The series can be described thus: NMR 1H-15N HSQC titration of LCS tail peptide into 15N-labeled GOLPH3-4G. It is filed as binding. The conditions noted are these: final LCS titration point, MES pH 6.5, 250 mM NaCl, 308K. As for the experimental part: (§1) Supplemental Material for Theodoropoulou, Nasrallah, et al 2026 buffer. Pooled fractions were concentrated to the required concentration using a MWCO concentrator (Millipore) with a cutoff of 10 kDa.
(§2) Size exclusion chromatography coupled to multi-angle light scattering
(§3) The molecular weights of the tested constructs were determined by size exclusion chromatography coupled to multi-angle light scattering (SEC-MALS). The mass measurements were performed on a UltiMate3000 HPLC system equipped with a 3 angles miniDAWN TREOS static light scattering detector (Wyatt Technology). The sample volumes of 5−10 μl at a concentration of 12 mg/mL, were applied to a Superdex 200 5/150 GL column (Cytiva) previously equilibrated with 250 mM NaCl, 50 mM Tris pH 8.0, 1 mM TCEP at a flow rate of 0.08 mL/min. The data were analyzed using the ASTRA 6.1 software package (Wyatt technology), using the absorbance at 280 nm and the theoretical extinction coefficient for concentration measurements.
(§4) Nuclear Magnetic Resonance (NMR) Spectroscopy
All proteins used for NMR experiments were designed on the GOLPH3-4G background due […]
Recombinant proteins were prepared with the isotope enrichment scheme appropriate for each experiment (i.e. 15N-only or 15N, 13C) in 20 mM MES […]
buffer pH 6.5 with 250 mM NaCl and 10% 2H2O.
Protein concentrations were around 300 µM for all NMR experiments, […]
spectrometer equipped with a CPTC 1H, 13C, 15N 5 mm cryoprobe and an Avance Neo console.
CA, and C) and CB resonances were assigned using a standard procedure based on conventional 3D HNCA, HN(CO)CA, HNCO, HN(CA)CO, CBCA(CO)NH and HNCACB spectra. All spectra were acquired and processed using Bruker’s Topspin 4.0 software.
Backbone assignments were obtained through manual spectral analysis assisted by the […]
spectra acquired on single-point mutants. […]
residues are provided in Table S1 and deposited in the BMRB under ID 53516.

Series [2] can be described thus: CD thermal denaturation of GOLPH3 proteins. The class given is physicochemical, human. The conditions noted are these: CD at 207 nm, 20 to 95 °C at 1 °C/min, 10 μM protein, 100 mM NaCl, 50 mM Tris pH 7.4, 1 mM TCEP. As for the experimental part:
(§5) Supplemental Material for Theodoropoulou, Nasrallah, et al 2026
Isothermal titration calorimetry
Isothermal titration calorimetry (ITC) experiments were performed on a MicroCal PEAQ-ITC (Malvern Panalytical), with GOLPH3 variants being in a buffer containing 250 mM NaCl, 50 mM Tris pH 8.0 and 1 mM TCEP. LCS peptides were synthesised and delivered as lyophilised powder (Genscript). The peptides were dissolved in the protein buffer and their concentrations were calculated based upon their absorbance at 280 nm and their corresponding molar extinction coefficient. Experiments consisted of titrations of a single 0.4 µL injection followed […]
GOLPH3 proteins at a 100 μM concentration. Experiments were performed at 25 °C in triplicate (n = 3), with injection duration of 4 s, injection spacing of 150 s, stir speed of 750 rpm, and reference power of 7 μcal/s. Data were processed and plotted using MicroCal PEAQ‐ITC Analysis Software and fitted to a one‐site binding model.
(§6) Circular Dichroism Spectroscopy
(§7) Circular Dichroism Spectra of GOLPH3 proteins (at 10 μM in 100 mM NaCl, 50 mM Tris pH 7.4 and 1 mM TCEP) were collected with a Chirascan V100 (AppliedPhotophysics), using a 1 mm path length cuvette, at 20 °C, in the 200-260 nm range. Thermal denaturation experiments […]
(§8) every 1 °C, with a temperature ramp speed of 1 °C/min and an equilibration time of […]
(§9) Table S2: Fits of CD spectra to fractions of secondary structure for Golph3 WT and various mutants of it, carried out with the BestSel server

Series [3] in a line: CD secondary structure of GOLPH3 proteins (BestSel fits). The class given is physicochemical, human. The conditions noted are these: 10 μM, 100 mM NaCl, 50 mM Tris pH 7.4, 1 mM TCEP, 20 °C. On the procedure:
as §5
Isothermal titration calorimetry […]
as §6, §7, §8, §9

A short description of series [4]: SEC-MALS of GOLPH3 constructs. The conditions noted are these: 12 mg/mL, 250 mM NaCl, 50 mM Tris pH 8.0, 1 mM TCEP. It is filed as physicochemical, human. On the procedure: as §1, §2, §3, §4
All proteins used for NMR experiments were designed on the GOLPH3-4G background due to its higher stability and solubility. Recombinant proteins were prepared with the isotope enrichment scheme appropriate for each experiment (i.e. 15N-only or 15N, 13C) in 20 mM MES buffer pH 6.5 with 250 mM NaCl and 10% 2H2O. Lower salt, even by 10%, yielded much degraded spectra. […]

B1: GOLPH3-4G: mutant F194G/L195G/L196G/F197G with improved solubility (protein)
chain: MTSLTQRSSGLVQRRTEASRNAADKERAAGGGAGSSEDDAQSRRDEQDDDDKGDSKETRLTLMEEVLLLGLKDREGYTSFWNDCISSGLRGCMLIELALRGRLQLEACGMRRKSLLTRKVICKSDAPTGDVLLDEALKHVKETQPPETVQNWIELLSGETWNPLKLHYQLRNVRERLAKNLVEKGVLTTEKQNGGGGDMTTHPLTNNNIKQRLIKKVQEAVLDKWVNDPHRMDRRLLALIYLAHASDVLENAFAPLLDEQYDLATKRVRQLLDLDPEVECLKANTNEVLWAVVAAFTK
As to B1, in series [1], the “chemical shift perturbation, A245” value is recorded as 0.023 p.p.m; the “chemical shift perturbation, A294” value is 0.02332 p.p.m; the “chemical shift perturbation, D247” value was 0.05478 p.p.m; the “chemical shift perturbation, D258” value came to 0.09666 p.p.m. Moreover, in series [1], the “chemical shift perturbation, E259” value amounted to 0.06997 p.p.m; the “chemical shift perturbation, H202” value amounted to 0 p.p.m; the “chemical shift perturbation, K266” value was 0.1082 p.p.m; the “chemical shift perturbation, K298” value is on record as 0.09652 p.p.m. For the same molecule, in series [1], the “chemical shift perturbation, Q260” value turned out to be 0.1208 p.p.m; the “chemical shift perturbation, S246” value is reported as 0.08006 p.p.m; the “chemical shift perturbation, T200” value is 0 p.p.m; the “chemical shift perturbation, T201” value stood at 0 p.p.m. In series [1], the “chemical shift perturbation, T265” value came to 0.1157 p.p.m; the “chemical shift perturbation, T297” value is on record as 0.1247 p.p.m; the “chemical shift perturbation, Y261” value came out at 0.1039 p.p.m. Moreover, the “Tm / melting temperature” value in series [2] came out at 55 °C. Moreover, in series [3], the “% alpha” value amounted to 36%, the “% beta parallel” value was determined as 0%, the “% beta-antiparallel” value stood at 13% and the “% others” value was determined as 36%. The “% turn” value in series [3] is listed as 15%. The oligomeric state result in series [4] was “monomeric”.
